PMC3310290 (2012)
Positions of bridges follow the written chain, without caps; N, C: chain ends. No end group written: not given here. fluorescein = Fluorescein label on the N-terminus, attached via Aca

Legend:
DD(E) DD(E) [1] = target: T1, DD(E) DD(E) (Homo sapiens, UniProt P02671); assay: FP displacement
T1 chain 1: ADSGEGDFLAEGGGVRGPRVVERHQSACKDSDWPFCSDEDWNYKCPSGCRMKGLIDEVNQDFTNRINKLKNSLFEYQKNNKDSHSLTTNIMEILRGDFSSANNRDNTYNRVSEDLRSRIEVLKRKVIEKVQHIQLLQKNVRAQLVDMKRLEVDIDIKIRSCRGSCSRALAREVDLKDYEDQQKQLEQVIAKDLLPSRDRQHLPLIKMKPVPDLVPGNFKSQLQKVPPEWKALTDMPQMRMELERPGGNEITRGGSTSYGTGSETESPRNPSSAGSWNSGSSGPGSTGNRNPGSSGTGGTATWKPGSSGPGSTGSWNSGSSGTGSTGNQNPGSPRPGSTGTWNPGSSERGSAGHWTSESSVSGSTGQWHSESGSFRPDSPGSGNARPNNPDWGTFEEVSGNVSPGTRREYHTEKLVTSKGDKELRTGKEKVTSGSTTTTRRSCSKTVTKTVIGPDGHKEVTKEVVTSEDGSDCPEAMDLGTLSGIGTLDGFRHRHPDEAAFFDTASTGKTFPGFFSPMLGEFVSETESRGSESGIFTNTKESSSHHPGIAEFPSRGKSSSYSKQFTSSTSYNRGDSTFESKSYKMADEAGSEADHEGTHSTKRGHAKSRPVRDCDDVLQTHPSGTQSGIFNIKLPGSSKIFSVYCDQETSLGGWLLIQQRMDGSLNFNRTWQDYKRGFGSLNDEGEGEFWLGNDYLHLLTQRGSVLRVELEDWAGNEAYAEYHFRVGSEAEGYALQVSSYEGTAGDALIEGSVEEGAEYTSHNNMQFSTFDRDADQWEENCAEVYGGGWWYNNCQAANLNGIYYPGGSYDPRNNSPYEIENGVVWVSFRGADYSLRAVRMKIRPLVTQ
T1 chain 2: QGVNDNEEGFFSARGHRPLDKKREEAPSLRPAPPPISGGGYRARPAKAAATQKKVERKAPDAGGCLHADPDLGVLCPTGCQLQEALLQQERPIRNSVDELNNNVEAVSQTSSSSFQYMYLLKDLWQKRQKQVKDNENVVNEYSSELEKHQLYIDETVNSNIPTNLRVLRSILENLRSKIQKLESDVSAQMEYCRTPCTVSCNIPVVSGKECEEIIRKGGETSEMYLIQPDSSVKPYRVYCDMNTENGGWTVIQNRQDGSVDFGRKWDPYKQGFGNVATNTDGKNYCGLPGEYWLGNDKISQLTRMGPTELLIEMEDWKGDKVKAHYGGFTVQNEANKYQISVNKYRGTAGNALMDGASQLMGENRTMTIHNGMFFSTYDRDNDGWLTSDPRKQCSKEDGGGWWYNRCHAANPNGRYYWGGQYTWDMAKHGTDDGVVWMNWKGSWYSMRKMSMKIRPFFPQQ
T1 chain 3: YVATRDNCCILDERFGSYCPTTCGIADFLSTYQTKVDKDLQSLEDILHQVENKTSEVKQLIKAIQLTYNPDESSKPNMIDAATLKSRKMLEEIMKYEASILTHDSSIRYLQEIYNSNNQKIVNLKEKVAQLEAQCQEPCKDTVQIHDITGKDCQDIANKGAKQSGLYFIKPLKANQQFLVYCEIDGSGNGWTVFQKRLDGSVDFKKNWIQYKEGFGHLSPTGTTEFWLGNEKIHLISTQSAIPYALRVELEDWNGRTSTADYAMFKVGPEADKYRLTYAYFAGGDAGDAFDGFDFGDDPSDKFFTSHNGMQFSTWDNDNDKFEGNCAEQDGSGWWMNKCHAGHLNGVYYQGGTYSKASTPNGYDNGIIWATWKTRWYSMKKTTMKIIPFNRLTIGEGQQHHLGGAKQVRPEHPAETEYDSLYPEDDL

fibrinogen [2] = target: T2, fibrinogen (Homo sapiens, UniProt P02671); assay: ITC
T2 chain 1: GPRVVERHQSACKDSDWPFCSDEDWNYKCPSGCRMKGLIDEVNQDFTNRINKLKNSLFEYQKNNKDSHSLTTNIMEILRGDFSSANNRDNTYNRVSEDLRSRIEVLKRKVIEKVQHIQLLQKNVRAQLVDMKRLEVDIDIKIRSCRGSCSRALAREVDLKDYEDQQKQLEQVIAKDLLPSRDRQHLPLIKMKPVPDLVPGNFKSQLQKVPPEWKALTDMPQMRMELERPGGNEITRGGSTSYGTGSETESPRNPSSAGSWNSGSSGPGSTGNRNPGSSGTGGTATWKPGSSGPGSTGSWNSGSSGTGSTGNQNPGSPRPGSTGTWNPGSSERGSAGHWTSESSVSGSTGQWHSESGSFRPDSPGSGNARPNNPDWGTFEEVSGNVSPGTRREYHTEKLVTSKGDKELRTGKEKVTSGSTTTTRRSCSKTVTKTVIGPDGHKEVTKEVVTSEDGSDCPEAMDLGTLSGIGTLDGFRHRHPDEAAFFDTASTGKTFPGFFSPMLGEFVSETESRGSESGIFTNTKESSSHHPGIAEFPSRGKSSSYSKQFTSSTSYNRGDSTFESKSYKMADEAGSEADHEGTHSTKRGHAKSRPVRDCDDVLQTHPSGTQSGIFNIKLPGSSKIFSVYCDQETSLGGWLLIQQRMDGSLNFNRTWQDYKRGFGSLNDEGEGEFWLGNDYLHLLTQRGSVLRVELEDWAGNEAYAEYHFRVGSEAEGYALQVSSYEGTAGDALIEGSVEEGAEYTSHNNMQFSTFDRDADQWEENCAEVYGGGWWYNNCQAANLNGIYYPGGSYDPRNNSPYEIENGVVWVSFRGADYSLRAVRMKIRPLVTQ
T2 chain 2: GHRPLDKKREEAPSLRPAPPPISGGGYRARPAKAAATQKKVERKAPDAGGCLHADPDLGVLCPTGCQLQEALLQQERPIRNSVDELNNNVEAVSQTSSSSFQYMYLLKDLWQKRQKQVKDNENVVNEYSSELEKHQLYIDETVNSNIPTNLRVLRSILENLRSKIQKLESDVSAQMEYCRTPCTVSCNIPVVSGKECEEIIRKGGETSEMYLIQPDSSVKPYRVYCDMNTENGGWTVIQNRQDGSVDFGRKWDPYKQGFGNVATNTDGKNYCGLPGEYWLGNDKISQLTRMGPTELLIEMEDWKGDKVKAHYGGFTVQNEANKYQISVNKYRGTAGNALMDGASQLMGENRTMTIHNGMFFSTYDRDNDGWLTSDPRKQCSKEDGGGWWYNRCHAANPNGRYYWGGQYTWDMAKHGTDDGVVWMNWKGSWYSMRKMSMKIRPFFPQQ
T2 chain 3: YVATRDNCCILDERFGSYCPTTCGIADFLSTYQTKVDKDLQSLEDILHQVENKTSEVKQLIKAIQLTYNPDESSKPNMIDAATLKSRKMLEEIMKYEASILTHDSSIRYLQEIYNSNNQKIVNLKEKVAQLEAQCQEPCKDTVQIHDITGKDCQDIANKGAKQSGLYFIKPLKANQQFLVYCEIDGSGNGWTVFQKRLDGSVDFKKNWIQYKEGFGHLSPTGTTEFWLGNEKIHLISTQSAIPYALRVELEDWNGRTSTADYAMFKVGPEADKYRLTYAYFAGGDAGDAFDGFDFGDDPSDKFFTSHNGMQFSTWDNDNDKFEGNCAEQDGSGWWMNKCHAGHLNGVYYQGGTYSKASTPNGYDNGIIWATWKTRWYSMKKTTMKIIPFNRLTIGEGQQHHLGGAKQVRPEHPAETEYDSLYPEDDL

fibrin = target: T3, fibrin (Homo sapiens, UniProt P02671); assay: fibrin plate depletion assay
T3 chain 1: ADSGEGDFLAEGGGVR
T3 chain 2: QGVNDNEEGFFSAR
T3 chain 3: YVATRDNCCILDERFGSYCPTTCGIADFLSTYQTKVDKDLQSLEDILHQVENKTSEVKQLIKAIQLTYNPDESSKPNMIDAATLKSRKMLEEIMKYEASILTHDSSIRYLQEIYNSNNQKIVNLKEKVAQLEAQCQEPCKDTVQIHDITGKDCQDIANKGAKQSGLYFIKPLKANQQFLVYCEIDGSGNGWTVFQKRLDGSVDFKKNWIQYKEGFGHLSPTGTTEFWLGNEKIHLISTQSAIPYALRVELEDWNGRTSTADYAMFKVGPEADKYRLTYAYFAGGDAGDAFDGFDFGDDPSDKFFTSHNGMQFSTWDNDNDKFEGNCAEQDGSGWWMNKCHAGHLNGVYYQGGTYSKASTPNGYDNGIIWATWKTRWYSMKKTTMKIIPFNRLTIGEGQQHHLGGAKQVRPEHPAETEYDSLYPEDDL

fibrinogen [3] = target: T2, fibrinogen; assay: FP displacement
fibrinogen [4] = target: T2, fibrinogen; assay: fluorescence polarization
DD(E) DD(E) [5] = target: T1, DD(E) DD(E); assay: fluorescence polarization

LPCDYYGTCLD-NH2 (disulfide 3-9; not fully specified (N-terminus); also: Gd(III) chelated by DTPA) [Tn7-3a-Gd] was tested. Which Ki (DD(E) DD(E) [1]) did it give?
The Ki was 2900 nM.

For LPCDYYGTCLD [Tn7-3], which Kd (fibrinogen [2]) is on record?
The Kd was greater than 20 µM.

B1: Tn6-1-Gd (peptide)
chain: GGWFHCPYDLCHIL-NH2
modifications: disulfide 6-11; not fully specified (N-terminus); also: Gd(III) chelated by DTPA
With B1 as the binder, how does the Kd (fibrin) read?
Its Kd is 3.1 µM.

For WFHCPYDLCHIL [Tn6-1], which Kd (fibrinogen [3]) is on record?
The Kd was greater than 200 µM.

B2: Tn7-3b-Gd (peptide)
chain: GLPCDYYGTCLD-NH2
modifications: disulfide 4-10; not fully specified (N-terminus); also: Gd(III) chelated by DTPA
B2 was tested. Which Kd (fibrin) did it give?
The Kd was 8.4 µM.

Which Kd (fibrinogen [4]) does the source give for {fluorescein-Aca}-QWECPYGLCWIQ (cysteine pairing not given here) [Tn6-2b-Fl] here?
The Kd was 22 µM.

And the Kd (DD(E) DD(E) [5])?
Its Kd is 57 nM.

What does the source list for WECPYGLCWIQ [Tn6-2a]?
Kd (fibrinogen [2]): > 50 µM; Kd (fibrin): 2.9 µM
